Columns and labels:
Format in all cases: biochemical
[1] = molecular target: LCK (Homo sapiens, UniProt P06239); test: TR-FRET kinase assay, LCK; conditions: Kinase Concentration 0.5 nM; 50 nM ULight-labeled substrate, 200 micromolar ATP, 2 hours
Experimental: (§1) TR-FRET kinase assays are performed under standardized conditions: various individual kinases are incubated with 50 nM of kinase substrate BRB1 labeled with the TR-FRET acceptor dye ULight (PerkinElmer) and 200 micromolar ATP in 10 μL of kinase assay buffer (50 mM HEPES pH7.5, 10 mM MgCl2, 3 mM MnCl2, 1 mM EGTA, 2 mM DTT and 0.01% Tween-20) for 2 hours at room temperature. Reactions are stopped with EDTA, and anti-phospho-tyrosine antibodies (clone PT66) labeled with the TR-FRET europium chelate donor dye are added to a final concentration of 2 nM in a final volume of 20 μL. The TR-FRET signal emitted at 665 nm is read one hour after the addition of antibodies using a TR-FRET plate reader such as the Envision® Multilabel Plate reader (PerkinElmer). The emitted signal at 665 nm is proportional to the extent of peptide phosphorylation, Control reactions indicative of background are performed excluding ATP from the reaction.
(§2) Assay conditions are identical to those used described for FIG. 1.

[2] = molecular target: FYN (Homo sapiens, UniProt P06241); test: TR-FRET kinase assay, FYN; conditions: Kinase Concentration 0.25 nM; 50 nM ULight-labeled substrate, 200 micromolar ATP, 2 hours
Sequence of FYN (P06241 whole entry, species assumed): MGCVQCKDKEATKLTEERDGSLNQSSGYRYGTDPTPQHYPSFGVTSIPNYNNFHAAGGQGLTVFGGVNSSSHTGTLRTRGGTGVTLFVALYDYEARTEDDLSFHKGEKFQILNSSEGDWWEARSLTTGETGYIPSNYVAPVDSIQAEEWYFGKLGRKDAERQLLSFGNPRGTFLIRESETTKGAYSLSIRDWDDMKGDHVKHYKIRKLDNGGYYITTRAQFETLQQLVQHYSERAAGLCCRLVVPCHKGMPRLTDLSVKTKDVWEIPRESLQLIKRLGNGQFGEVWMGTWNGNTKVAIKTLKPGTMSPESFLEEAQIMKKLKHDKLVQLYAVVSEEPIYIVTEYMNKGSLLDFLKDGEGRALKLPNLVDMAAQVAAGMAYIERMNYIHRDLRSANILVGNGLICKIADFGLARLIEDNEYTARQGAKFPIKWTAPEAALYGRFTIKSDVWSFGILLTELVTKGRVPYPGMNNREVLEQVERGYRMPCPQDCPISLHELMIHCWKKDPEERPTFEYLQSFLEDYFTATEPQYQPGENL
Experimental: as §1, §2

[3] = molecular target: LYNa (Homo sapiens, UniProt P07948); test: TR-FRET kinase assay, LYNa; conditions: Kinase Concentration 0.5 nM; 50 nM ULight-labeled substrate, 200 micromolar ATP, 2 hours
Sequence of LYNa (P07948 whole entry, species assumed): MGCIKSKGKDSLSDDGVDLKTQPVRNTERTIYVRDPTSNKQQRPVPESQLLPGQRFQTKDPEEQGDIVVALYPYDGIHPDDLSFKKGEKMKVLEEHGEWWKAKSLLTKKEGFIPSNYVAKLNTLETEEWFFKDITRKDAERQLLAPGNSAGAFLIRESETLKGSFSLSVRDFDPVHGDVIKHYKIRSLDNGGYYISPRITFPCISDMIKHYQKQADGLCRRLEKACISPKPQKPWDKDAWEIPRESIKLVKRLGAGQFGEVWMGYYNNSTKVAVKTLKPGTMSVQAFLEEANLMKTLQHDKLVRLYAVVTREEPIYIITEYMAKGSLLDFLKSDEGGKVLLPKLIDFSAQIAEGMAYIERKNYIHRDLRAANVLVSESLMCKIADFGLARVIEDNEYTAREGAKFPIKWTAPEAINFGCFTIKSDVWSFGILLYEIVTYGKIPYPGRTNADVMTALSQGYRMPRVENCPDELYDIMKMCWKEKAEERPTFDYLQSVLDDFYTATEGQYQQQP
Experimental: as §1, §2

[4] = molecular target: MET (Homo sapiens, UniProt P08581); test: TR-FRET kinase assay, MET; conditions: Kinase Concentration 0.5 nM; 50 nM ULight-labeled substrate, 200 micromolar ATP, 2 hours
Sequence of MET (P08581 25-1390): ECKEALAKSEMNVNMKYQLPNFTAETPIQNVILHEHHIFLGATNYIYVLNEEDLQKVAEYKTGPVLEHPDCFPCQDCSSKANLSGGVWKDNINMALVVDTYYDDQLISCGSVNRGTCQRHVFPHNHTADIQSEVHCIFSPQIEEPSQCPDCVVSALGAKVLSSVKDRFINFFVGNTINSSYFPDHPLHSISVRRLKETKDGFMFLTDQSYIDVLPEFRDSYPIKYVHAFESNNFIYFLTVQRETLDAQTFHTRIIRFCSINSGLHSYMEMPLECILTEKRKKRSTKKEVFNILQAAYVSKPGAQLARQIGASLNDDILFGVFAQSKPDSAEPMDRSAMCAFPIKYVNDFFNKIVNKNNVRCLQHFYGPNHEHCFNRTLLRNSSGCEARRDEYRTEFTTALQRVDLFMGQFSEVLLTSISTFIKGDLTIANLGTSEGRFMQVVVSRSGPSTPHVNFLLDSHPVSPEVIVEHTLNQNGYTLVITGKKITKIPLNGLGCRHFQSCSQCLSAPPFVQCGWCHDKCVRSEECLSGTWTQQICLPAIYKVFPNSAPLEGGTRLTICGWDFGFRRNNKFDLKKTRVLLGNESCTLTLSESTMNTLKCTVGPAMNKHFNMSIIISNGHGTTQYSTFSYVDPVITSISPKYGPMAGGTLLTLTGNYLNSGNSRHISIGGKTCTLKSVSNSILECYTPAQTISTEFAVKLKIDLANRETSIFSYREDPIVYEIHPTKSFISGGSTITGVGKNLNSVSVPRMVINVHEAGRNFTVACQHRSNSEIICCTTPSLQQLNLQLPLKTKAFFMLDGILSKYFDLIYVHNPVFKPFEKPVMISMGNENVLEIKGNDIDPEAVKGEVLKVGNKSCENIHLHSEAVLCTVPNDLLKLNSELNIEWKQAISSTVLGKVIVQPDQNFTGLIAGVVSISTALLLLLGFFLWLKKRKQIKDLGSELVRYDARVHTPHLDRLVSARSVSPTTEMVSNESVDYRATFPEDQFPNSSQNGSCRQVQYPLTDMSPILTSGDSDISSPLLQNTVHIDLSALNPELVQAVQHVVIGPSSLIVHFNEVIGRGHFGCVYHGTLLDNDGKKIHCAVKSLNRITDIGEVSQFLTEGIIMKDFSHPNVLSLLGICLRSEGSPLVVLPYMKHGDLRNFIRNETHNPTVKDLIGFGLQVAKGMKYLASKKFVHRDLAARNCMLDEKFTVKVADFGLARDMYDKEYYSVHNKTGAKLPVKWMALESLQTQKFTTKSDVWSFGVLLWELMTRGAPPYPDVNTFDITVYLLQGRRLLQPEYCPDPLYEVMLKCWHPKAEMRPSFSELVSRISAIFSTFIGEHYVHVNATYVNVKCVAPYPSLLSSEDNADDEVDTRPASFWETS
Experimental: as §1, §2

[5] = molecular target: LTK (Homo sapiens, UniProt P29376); test: TR-FRET kinase assay, LTK; conditions: Kinase Concentration 1 nM; 50 nM ULight-labeled substrate, 200 micromolar ATP, 2 hours
Sequence of LTK (P29376 17-864, species assumed): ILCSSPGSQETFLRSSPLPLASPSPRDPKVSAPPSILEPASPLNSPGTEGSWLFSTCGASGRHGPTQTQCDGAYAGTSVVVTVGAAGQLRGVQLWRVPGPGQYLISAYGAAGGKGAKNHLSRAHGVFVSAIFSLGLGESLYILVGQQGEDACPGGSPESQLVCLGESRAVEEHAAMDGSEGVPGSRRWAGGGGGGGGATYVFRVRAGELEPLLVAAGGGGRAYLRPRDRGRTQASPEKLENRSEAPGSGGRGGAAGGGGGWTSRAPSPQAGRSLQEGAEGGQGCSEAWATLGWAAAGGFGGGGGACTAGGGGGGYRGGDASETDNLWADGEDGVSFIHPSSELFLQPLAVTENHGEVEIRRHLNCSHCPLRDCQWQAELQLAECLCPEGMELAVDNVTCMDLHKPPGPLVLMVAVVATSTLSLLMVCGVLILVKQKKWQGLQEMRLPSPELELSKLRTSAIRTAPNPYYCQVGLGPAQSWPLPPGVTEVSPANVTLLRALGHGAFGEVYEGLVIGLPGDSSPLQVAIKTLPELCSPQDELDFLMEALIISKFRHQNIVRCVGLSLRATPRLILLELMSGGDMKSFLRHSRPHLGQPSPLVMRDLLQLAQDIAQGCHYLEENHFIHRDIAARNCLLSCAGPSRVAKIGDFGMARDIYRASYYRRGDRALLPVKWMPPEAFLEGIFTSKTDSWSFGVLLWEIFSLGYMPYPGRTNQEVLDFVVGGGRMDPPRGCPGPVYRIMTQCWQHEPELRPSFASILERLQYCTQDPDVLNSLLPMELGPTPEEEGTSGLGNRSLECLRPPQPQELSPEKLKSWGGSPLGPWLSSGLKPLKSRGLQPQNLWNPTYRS
Experimental: as §1, §2

[6] = molecular target: T1, TXK (Homo sapiens, UniProt P42681); test: TR-FRET kinase assay, TXK; conditions: Kinase Concentration 3 nM; 50 nM ULight-labeled substrate, 200 micromolar ATP, 2 hours
T1 sequence (P42681 1-527): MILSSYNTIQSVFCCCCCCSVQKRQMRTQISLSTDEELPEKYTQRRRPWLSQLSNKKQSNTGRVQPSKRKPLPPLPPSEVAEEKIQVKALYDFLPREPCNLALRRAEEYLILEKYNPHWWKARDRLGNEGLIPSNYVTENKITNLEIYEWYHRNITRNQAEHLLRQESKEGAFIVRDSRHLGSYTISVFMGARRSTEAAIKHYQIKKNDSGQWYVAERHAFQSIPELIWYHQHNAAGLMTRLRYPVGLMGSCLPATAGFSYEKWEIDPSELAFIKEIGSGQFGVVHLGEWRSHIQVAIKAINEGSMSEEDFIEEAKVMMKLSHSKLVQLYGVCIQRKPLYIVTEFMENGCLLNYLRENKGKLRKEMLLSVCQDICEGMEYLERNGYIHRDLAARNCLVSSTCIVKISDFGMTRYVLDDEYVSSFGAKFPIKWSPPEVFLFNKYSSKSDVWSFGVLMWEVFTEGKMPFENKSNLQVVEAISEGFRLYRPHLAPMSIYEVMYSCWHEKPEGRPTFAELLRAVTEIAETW
Experimental: as §1, §2

[7] = molecular target: T2, EphB4 (Homo sapiens, UniProt P54760); test: TR-FRET kinase assay, EphB4; conditions: Kinase Concentration 0.5 nM; 50 nM ULight-labeled substrate, 200 micromolar ATP, 2 hours
T2 sequence (P54760 16-987): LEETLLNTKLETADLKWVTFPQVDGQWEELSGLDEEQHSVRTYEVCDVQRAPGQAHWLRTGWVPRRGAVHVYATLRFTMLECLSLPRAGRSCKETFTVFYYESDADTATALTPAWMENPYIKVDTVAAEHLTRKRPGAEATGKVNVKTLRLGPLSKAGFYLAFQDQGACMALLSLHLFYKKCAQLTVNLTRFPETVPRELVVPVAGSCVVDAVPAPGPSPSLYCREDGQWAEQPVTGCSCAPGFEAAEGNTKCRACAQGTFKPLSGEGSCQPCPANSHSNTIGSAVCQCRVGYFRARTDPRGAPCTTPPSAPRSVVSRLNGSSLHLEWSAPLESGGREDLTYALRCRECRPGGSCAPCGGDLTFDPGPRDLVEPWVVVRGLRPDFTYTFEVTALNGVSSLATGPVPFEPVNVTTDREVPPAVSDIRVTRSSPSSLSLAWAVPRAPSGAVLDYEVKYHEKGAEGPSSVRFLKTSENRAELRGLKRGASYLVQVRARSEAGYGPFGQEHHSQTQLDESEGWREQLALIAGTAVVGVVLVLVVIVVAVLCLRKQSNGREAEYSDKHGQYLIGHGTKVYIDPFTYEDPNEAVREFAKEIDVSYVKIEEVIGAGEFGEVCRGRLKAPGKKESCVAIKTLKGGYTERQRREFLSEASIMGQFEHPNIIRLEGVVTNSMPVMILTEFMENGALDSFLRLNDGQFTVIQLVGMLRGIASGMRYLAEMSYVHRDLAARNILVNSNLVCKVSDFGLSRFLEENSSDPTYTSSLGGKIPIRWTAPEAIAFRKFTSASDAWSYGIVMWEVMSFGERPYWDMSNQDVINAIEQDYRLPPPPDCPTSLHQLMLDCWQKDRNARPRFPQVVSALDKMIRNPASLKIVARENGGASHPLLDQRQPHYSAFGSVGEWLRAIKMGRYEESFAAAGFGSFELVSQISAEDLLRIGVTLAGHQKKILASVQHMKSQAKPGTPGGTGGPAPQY
Experimental: as §1, §2

Sequence of LCK (P06239 whole entry, species assumed): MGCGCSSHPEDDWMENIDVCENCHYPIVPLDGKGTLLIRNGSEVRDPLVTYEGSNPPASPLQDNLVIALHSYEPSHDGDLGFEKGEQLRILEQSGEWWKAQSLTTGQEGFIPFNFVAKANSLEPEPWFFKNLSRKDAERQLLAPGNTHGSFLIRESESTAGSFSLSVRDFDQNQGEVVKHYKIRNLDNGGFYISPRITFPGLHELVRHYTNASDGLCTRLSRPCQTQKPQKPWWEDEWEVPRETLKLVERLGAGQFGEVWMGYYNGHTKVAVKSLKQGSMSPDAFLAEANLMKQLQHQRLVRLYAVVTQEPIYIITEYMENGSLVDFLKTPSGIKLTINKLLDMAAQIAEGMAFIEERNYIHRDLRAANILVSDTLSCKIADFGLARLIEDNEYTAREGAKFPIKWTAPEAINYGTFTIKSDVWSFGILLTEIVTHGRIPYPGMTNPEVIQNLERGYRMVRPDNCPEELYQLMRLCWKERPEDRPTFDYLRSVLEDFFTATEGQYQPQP

“C AYE AYE AYE K EYA EYA EYA K AYA EYE R (CAYEAYEAYEKEYAEYAEYAKAYAEYER; tyrosine kinase substrate peptide) [BRB1]” was tested, and the “Signal to Noise ratio with BRB1 Peptide” value [1] was 12.3, the “Signal to Noise ratio with BRB1 Peptide” value [2] was 25.9 and the “Signal to Noise ratio with BRB1 Peptide” value [3] was 32.5. The “Signal to Noise ratio with BRB1 Peptide” value [4] was 24.2, the “Signal to Noise ratio with BRB1 Peptide” value [5] was 13.7 and the “Signal to Noise ratio with BRB1 Peptide” value [6] was 5.9. The “Signal to Noise ratio with BRB1 Peptide” value [7] was 29.8.

— patent US8242083B2, “Kinase substrates” (PerkinElmer Health Sciences, Inc., priority 2008, dated 2012)
